The assay has as its target 4xSH3lig::Cas12a (SEQ ID NO: 187). Nature of the assay: cell-based or functional assay.

Data on one molecule can be found in US20210171947A1 (PAIRWISE PLANTS SERVICES, published 2021).

B1: VirD2::SH3dom (SEQ ID NO: 186) (other)
chain: MPDRAQVIIRIVPGGGTKTLQQIINQLEYLSRKGRLELQRSARHLDIPLPPDQIHELARSWVQETGTYDESQPDEERQQELTTHIIVSFPAGTSQVAAYAASREWAAEMFGSGAGGGRYNYLTAFHIDRDHPHLHVVVNRRELLGHGWLKISRRHPQLNYDALRIKMAEISLRHGIALDASRRAERGITERPITYAQYRRLEREQARQIRFEDADLEQSSPQGDHPEFSQPFDTSPFEASAGGPEDMPRPNNRQNESQVHLQEPAGVSNEAGVLVRVALETERLAQPFVSETILADDIGSGSSRVAEGRVESANRTPDIPRAATEAATHTTHDRQRRAKRPHDDDGGPSGAKRVTLEGIAVGPQANAGEQDGSSGGSSGGSMSGSKKRRIKQDAEYVRALFDFNGNDEEDLPFKKGDILRIRDKPEEQWWNAEDSEGKRGMIPVPYVEKYSGSGGSSGGSSGPLVRQAGTSRPSPPTATTRASTATDSLSATAHLQQRRGVLSKRPREDDDGEPSERKRERDERSKDGRGGNRR
On to B1, for which the “increase of green shoots over the negative control, EF1α site” value is approximately 3 fold and the “increase of green shoots over the negative control, polyubiquitin site” value is approximately 2 fold.
